Experimental data: PMC10397247

Assays:
Assay in all cases: two-hybrid library CCmax;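 also: natural log of median RNA to DNA barcode read ratio; higher means stronger binding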
[1] = biological target: T1, 4H380-AA; conditions: mean of both orientations
T1 chain: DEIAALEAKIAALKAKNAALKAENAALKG

[2] = biological target: T2, 4H432-AA; conditions: mean of both orientations
T2 chain: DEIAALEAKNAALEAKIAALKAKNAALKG

[3] = biological target: T3, 4H3449-AA; conditions: mean of both orientations
T3 chain: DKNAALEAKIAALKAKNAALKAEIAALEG

[4] = biological target: T4, 4H133-AA
T4 chain: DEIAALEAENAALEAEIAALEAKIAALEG

[5] = biological target: T5, 4H446-AA; conditions: mean of both orientations
T5 chain: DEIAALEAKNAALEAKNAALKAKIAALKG

[6] = biological target: T6, 4H1349-AA; conditions: mean of both orientations
T6 chain: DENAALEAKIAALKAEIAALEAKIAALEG

[7] = biological target: T7, 4H1384-AA; conditions: mean of both orientations
T7 chain: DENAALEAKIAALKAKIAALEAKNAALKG

[8] = biological target: T8, 4H3094-AA; conditions: mean of both orientations
T8 chain: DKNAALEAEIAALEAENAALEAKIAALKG

[9] = biological target: T9, 4H235-AA; conditions: mean of both orientations
T9 chain: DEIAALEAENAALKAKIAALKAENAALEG

[10] = biological target: T10, 4H2961-AA; conditions: mean of both orientations
T10 chain: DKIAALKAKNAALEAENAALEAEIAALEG

[11] = biological target: T11, 4H2760-AA; conditions: mean of both orientations
T11 chain: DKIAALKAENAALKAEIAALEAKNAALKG

[12] = biological target: T12, 4H63-AA; conditions: mean of both orientations
T12 chain: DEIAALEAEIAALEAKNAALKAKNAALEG

[13] = biological target: T13, 4H2774-AA; conditions: mean of both orientations
T13 chain: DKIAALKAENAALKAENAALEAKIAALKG

[14] = biological target: T14, 4H341-AA; conditions: mean of both orientations
T14 chain: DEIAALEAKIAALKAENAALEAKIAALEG

[15] = biological target: T15, 4H2903-AA; conditions: mean of both orientations
T15 chain: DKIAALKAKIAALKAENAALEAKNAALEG

[16] = biological target: T16, 4H1449-AA; conditions: mean of both orientations
T16 chain: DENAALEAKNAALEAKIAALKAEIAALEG

[17] = biological target: T17, 4H3629-AA; conditions: mean of both orientations
T17 chain: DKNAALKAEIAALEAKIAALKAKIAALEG

[18] = biological target: T18, 4H3777-AA; conditions: mean of both orientations
T18 chain: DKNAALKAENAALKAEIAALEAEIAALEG

[19] = biological target: T19, 4H3915-AA; conditions: mean of both orientations
T19 chain: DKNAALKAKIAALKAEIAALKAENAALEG

[20] = biological target: T20, 4H2621-AA; conditions: mean of both orientations
T20 chain: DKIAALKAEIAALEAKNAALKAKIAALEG

[21] = biological target: T21, 4H2947-AA
T21 chain: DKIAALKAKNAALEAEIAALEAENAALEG

[22] = biological target: T22, 4H1878-AA; conditions: mean of both orientations
T22 chain: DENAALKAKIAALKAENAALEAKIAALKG

[23] = biological target: T23, 4H3049-AA; conditions: mean of both orientations
T23 chain: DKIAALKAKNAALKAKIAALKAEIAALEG

[24] = biological target: T24, 4H2580-AA; conditions: mean of both orientations
T24 chain: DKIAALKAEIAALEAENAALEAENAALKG

[25] = biological target: T25, 4H2604-AA; conditions: mean of both orientations
T25 chain: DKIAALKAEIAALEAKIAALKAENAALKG

[26] = biological target: T26, 4H3974-AA; conditions: mean of both orientations
T26 chain: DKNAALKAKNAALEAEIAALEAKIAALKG

[27] = biological target: T27, 4H249-AA; conditions: mean of both orientations
T27 chain: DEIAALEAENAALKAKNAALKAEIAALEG

[28] = biological target: T28, 4H1593-AA; conditions: mean of both orientations
T28 chain: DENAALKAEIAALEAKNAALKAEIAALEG

[29] = biological target: T29, 4H3619-AA; conditions: mean of both orientations
T29 chain: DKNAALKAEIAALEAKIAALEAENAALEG

[30] = biological target: T30, 4H324-AA; conditions: mean of both orientations
T30 chain: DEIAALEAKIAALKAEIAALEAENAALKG

B1: 4H133-AA (peptide)
chain: DEIAALEAENAALEAEIAALEAKIAALEG
An interaction score [1] of -1.13, an interaction score [2] of -0.168 and an interaction score [3] of 0.625 were found for B1 in this work. The interaction score [4] was -0.665, the interaction score [5] was 0.854 and the interaction score [6] was 0.224. It also gave an interaction score [7] of 0.598, an interaction score [8] of -1.05 and an interaction score [9] of 0.197. For the same binder, the interaction score [10] was -1.33, the interaction score [11] was 1.33 and the interaction score [12] was -1.37. For the same binder, the interaction score [13] was 0.342, the interaction score [14] was -1.11 and the interaction score [15] was -1.62. For the same binder, the interaction score [16] was 0.176, the interaction score [17] was 1.24 and the interaction score [18] was 0.631. For the same binder, the interaction score [19] was 1.08, the interaction score [20] was 0.704 and the interaction score [21] was -0.964. For the same binder, the interaction score [22] was 1.23, the interaction score [23] was 2.17 and the interaction score [24] was -1.27. For the same binder, the interaction score [25] was -0.647, the interaction score [26] was 0.688 and the interaction score [27] was 0.33. For the same binder, the interaction score [28] was -0.948, the interaction score [29] was -0.325 and the interaction score [30] was -0.986.
